# The RNAGym collection of RNA variant scans (doi:10.1073/pnas.2313332121)
# This sample holds only a part of the variants without activity.
# B1: TPR 5TU (parent)
# chain: GGAUCUUCUCGAUCUAACAAAAAAGACAAAUCUGCCACAAAGCUUGAGAGCAUCUUCGGAUGCAGAGGCGGCAGCCUUCGGUGGCGCGAUAGCGCCAACGUUCUCAACUAUGACACGCAAAACGCGUGCUCCGUUGAAUGGAGUUUAUCAUG
# Variants of: B1
# Assay: polymerase ribozyme fitness, log enrichment relative to wild type (log ratio); higher = more active; in vitro selection for triplet polymerase activity
# In short: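 In triplicate, a single round of in vitro selection was run on each mutant library, PCR-built and transcribed, covering one subunit of a heterodimeric triplet polymerase ribozyme. Frozen incubation at −7 °C followed annealing with a biotinylated primer, partner subunit and triplets, and extended constructs were then gel-excised, streptavidin-captured and taken through RT-PCR. Fitness is the logarithm of genotype enrichment over wild-type enrichment, from inverse-variance-weighted replicate averages of Illumina-sequenced inputs and outputs. […] only genotypes with ≥10 input reads and ≥1 read per output were kept.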
row,Variant,polymerase ribozyme fitness (log ratio)
1,A49C U53A G86U A115G,≤ -4.2
2,U82G G86U C123U,-1.47
3,G59C U101G,-0.121
4,U55A C69U G94C,-3.36
5,C54U U82G C95A A119G,-2.04
6,C75U C79A,≤ -4.2
7,G86U A142G,-2.35
8,G94U G143U,-3.64
9,C99U C125U,0.0952
10,G42A C43A G48A G50C A66C C85U,≤ -4.2
11,G48C C54A A73U C99A A150C,≤ -4.2
12,U33A A37G C105U A106G,-4.07
13,G59A G88A,-4.04
14,U44A A89U G92C C95U,≤ -4.2
15,C72U G83A C93U U111C A120U G143U,≤ -4.2
16,C36A A66C,≤ -4.2
17,C14A G50A C85U G126C,-4.17
18,G11C G42A G88C U102C G126U,≤ -4.2
19,G59C A89U G92C A121G,-2.45
20,A24G G25C A49U G84A U102G,≤ -4.2
21,C32G C85G,≤ -4.2
22,C5G C18U A21C G86A C105A C123G,≤ -4.2
23,C54G U55A G94U A98C U146G,-3.37
24,U56A G88U U104C G124U,≤ -4.2

row,Variant,polymerase ribozyme fitness (log ratio)
1,C54U C99G U101G A142U,-3.57
2,C57U A91G A97G U135A G143A,≤ -4.2
3,A47U A60C C103G A107G,≤ -4.2
4,G42C A47G C57A C75G C125G,≤ -4.2
5,C10A C95U,-3.57
6,A22U A28G,-3.35
7,U151C,-2.78
8,A40U U61A A107U G128U U151C,≤ -4.2
9,A39C G88C A97G C114G,≤ -4.2
10,A30G G86C A147C,≤ -4.2
11,A49G C75U C96G,-2.68
12,C103G U144A,-2.15
13,G84U G94A C96A,-3.87
14,C85U A122C,-1.06
15,G59A U78C G88U C96U U109G G140C,≤ -4.2
16,G83C G136C,-4.09
17,U7G A16C,-2.38
18,A12U A39U A150C,≤ -4.2
19,U56G U146G,-3.46
20,C5U U13C C85U U101G C105A U109G A110G,≤ -4.2
21,A39C A40C G70C G88C U109C,≤ -4.2
22,A19U G34U C51U U53C G81A G86U G92A C96U A98G,≤ -4.2
23,C35U A49G G70A C95G C105A,≤ -4.2
24,A17U C85G,-2.57

row,Variant,polymerase ribozyme fitness (log ratio)
1,U45A A73G G83C C85U,≤ -4.2
2,C10G U33A C69A C96G,≤ -4.2
3,C35A A52C U77C A147C,≤ -4.2
4,A22G C36G G81U A89C A97C C116A,≤ -4.2
5,A73G G128C,-3.67
6,G11A G25C G50A A52G C75G U90G C103U U144A,≤ -4.2
7,C57U C95A G112U U151A,-4.06
8,C79A C116A,-3.87
9,G86A A110U,≤ -4.2
10,G11A G59A,-1.71
11,U15G A47C C57U C96A C108G,≤ -4.2
12,A19U G59A G83U C95A C132U G136U G141A,≤ -4.2
13,A3U C14G G50C C85U G88A,≤ -4.2
14,C38A A73C C75G A120C,≤ -4.2
15,C8G G11A A17U G71U G88U U127C U135G U148C A150C,≤ -4.2
16,C35U C93A C103G,≤ -4.2
17,C54G C96U C123G,-1.53
18,G25U C85A,-3.88
19,U9G U15C C87G A113G A142G,≤ -4.2
20,C10G A22G A39U U109C,≤ -4.2
21,C27U U55A U56A,-2.25
22,U6A A26C A122C,-2.04
23,C95A A98G,0.372
24,C57G A91G A147C,-3.13

row,Variant,polymerase ribozyme fitness (log ratio)
1,A120C G136U G140C,-4.19
2,G65A C85A,-2.26
3,A28C A73C U78G G86C A110U A113U A137C A138U,≤ -4.2
4,C35U C43A G58U C75G C87G A121U C123U G133A,≤ -4.2
5,U15C C57G U82G G94A,0.771
6,U101G G124A,0.852
7,C10A G92A,-4.08
8,C57U G94C C116U,0.445
9,G50C C57U G59C C99G,≤ -4.2
10,U31A G50C C85U,-3.83
11,C63U C76A C103G U146G U148G,≤ -4.2
12,A97U U139A U144A,-4.08
13,A3U A12G C87G,-4.02
14,U4G G11U G59A C93U C125U U144C,≤ -4.2
15,A41U C54U C63U U82A C95G A115U,≤ -4.2
16,C63G C76U,0.0444
17,A21U C32G C85A,≤ -4.2
18,A12U A23C C54G U55G C79A G83U G92A G124C U145A,≤ -4.2
19,U55A C69G,-3.05
20,U55A A113U A121G U139G G141U U144A,≤ -4.2
21,C14G A30G G46C C95U,-4.17
22,C69U C76U A97U U109G G112C C125A,≤ -4.2
23,A40C G50C C79U G81C C118U,≤ -4.2
24,U6C C93G,-3.54

row,Variant,polymerase ribozyme fitness (log ratio)
1,U44A U53C G86A A147C,≤ -4.2
2,U53A G92U C103A,-2.78
3,C38G G42C G71C C95A C96A,≤ -4.2
4,A12G C14G A52C G67A G124A A137C,≤ -4.2
5,A41U G59A A73G A89U C93G A107G,≤ -4.2
6,G50A C57A C76G C93G,≤ -4.2
7,C38G U56A G86U U130A,≤ -4.2
8,U44G G59A A60C G83A C95G C103G,≤ -4.2
9,C8A G42A G59U G67C,≤ -4.2
10,C63U A98G G126U C129G,≤ -4.2
11,A24U A98U C99U U127G,-3.94
12,G71U C72A A91G C116A A138U,≤ -4.2
13,A41G A60U U130C,-0.614
14,G84U G100A A106U A137C,≤ -4.2
15,A110U U127A,-4.06
16,A21C U148A,-3.11
17,U56A U144A,-0.302
18,G83U U151A,≤ -4.2
19,A20U C27A C38G C54U C79U G112A,≤ -4.2
20,U53A U56G C57U A73G C87A G143A,≤ -4.2
21,U55A A113C,-2.92
22,U82A C129A,-2.19
23,C14A C99G,-1.66
24,U9A A12G C14U A23U A40C C76G G86C U90C C118A C131G,≤ -4.2

row,Variant,polymerase ribozyme fitness (log ratio)
1,C36A A47C G59U,≤ -4.2
2,A20G A29C G46U C54U C96U C116A U148A,≤ -4.2
3,A17C A40C G83C U109G,-3.6
4,G68A C87U C114A U144C,-4.11
5,U82A,-0.0631
6,A19C A66C G94A U134G,≤ -4.2
7,A41C A137G C149U,-2.44
8,A19C A29C U33G C87G C108U U135A U148A,≤ -4.2
9,A98U C129U,0.463
10,U31A U45A U55G C85U C95G A120G A142U,-4.06
11,A3U C51U U56G G58C G59A A73G,-3.64
12,A23U C54U G74U U78G,≤ -4.2
13,U33C C54U C96U A107C,≤ -4.2
14,A49C G68C C85G A115G A119G G141U A147C,≤ -4.2
15,A21C C96A G143A U146G,-3.61
16,G128C A150U,-4
17,G84A U148C,-2.65
18,A24G U31A C38G U53A C57A U77C G83A A137C,≤ -4.2
19,G84U A89U U104G U127A,≤ -4.2
20,A20C U56A C75U,-0.244
21,U9A A47C,-4.13
22,C5A C76A C85G G133C,-2.61
23,A41C G59U C87U A120U A122C G124U U146C,-2.2
24,G71U G83C,-2.74

row,Variant,polymerase ribozyme fitness (log ratio)
1,A19U A37C U135G,-3.82
2,C72U G143C,-3.23
3,C10A G50A A60G G86A G133C,≤ -4.2
4,G34A G58A U90A G94A U109G,≤ -4.2
5,G70A C87U C96A C118G A147C,≤ -4.2
6,A17C A40G C54A G83A G124A,≤ -4.2
7,U31G C123U,0.732
8,C27A C85U C96A C114U A119G G140C,-4.07
9,C85A G94C A121C,-1.84
10,C8G A17C C18G A41C A52U G83A G140U,≤ -4.2
11,C57G G58U A137G G143A,-2.87
12,G25U A30G A47G C51U G80C A110C,≤ -4.2
13,A3U C36U C95U,-3.09
14,A41C U82C,-1.14
15,A40G G58C C87A C103G A110U U135A,≤ -4.2
16,A115G,-1
17,U33G G62U C69U C103A G126C,≤ -4.2
18,C14U A40G U56A G59C C76U A121U,-4.02
19,A12G A24U U53A U82G G84A A89U,-3.13
20,U61G G136C,-2.91
21,A26U A98G U127G,≤ -4.2
22,C105G U127C U139G,-2.77
23,A60G G70C A89C,-3.24
